From the nanobody polyreactivity screen of Harvey et al. (2022)

Assay: yeast display, Sf9 membrane polyspecificity reagent, FACS + sequencing; frameworks hold sequencing errors
How it was run: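 Nanobodies came from a synthetic yeast display library in Saccharomyces cerevisiae BJ5465, induced with galactose for 36–48 hours and stained for 1 hour at 4 °C with 10% biotinylated, detergent-solubilized Sf9 membrane reagent. Cells were enriched on streptavidin microbeads and then FACS-sorted, with low and high (top ~1%) gates set on anti-HA fluorescence for expression and streptavidin fluorescence for reagent binding. Each polyreactivity label reflects the gate a clone came from. Genes were amplified by colony PCR, sequenced by MiSeq 2 × 250 and filtered by CDR length.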

QVQLVESGGGLVQAGGSLRLSCAASGSIFSPYAMGWYRQAPGKERELVAAISWTGGRTYYADSVKGRFTISRDNAKNTVYLQMNSLKPEDTAVYYGAAAYYGTRPYGYWGQGTQVTVSS
polyreactivity (PSR sort gate): high polyreactivity

QVQLVESGGGLVQAGVSLRISCAAAGFTFERYAMGWYRQAPGKERELVATISRRGGSTNYADSVKGRFTISRDNAKNTVYLQMNSLKPEDTAVYYCARTLYRGKSYHVHSKYDYWGQGTQVTVSS
polyreactivity (PSR sort gate): high polyreactivity

QVQLVESGGGLVQAGGILRLSCAASGRIFRGYAMGWYIQAPAKERELVASIDWNGGRTYYADSEKGRFTISRDNAKNTVYLQMNSLKPEDTAVYYCAVLPYRTLYNYYYWGQGTQVTVSS
polyreactivity (PSR sort gate): high polyreactivity

QVQLVESGGGLVQAGGSLRLSCAASGRIFGRYAMGWYRQAPGKERELVAVISARGARTYYADSVKGRFTISRDNAKNTVYLQMNSLKPEDTAVYYCAVDQYATDDYWGQGTQVTVSS
polyreactivity (PSR sort gate): high polyreactivity

QVQLVESGGGLVQAGGSLRLSCAASGIIFTTNAMGWYRQAPGKERELVATISTGGGTYYADSVKGRFTSSRDNAKNTVYLQMHSLKPEDTAVYYCAATPGWGPWIFDHSYVDFDYWGQGTQVTVSS
polyreactivity (PSR sort gate): low polyreactivity

QVQLVESGGGLVQAGGSLRLSCAASGSTFFPYAMGWYRQAPGKERELVAGISSDGGTSYADSVKGRFTISRDNAKNTVYLQMNSLKPEDTAVYYCAALQADRGGWYDYWGQGTQVTVSS
polyreactivity (PSR sort gate): low polyreactivity

QVQLVESGGGLVQAGGSLRLSCAASGFIIGDYAMGWYRQAPGKERELVAAITISGGGTYYADSVKGRFTISRDNAKNTVYLQMNSLKPEDTAVYYCAAGYYDLNLDTDFGFDYWGQGTQVTVSS
polyreactivity (PSR sort gate): low polyreactivity

QVQLVESGGGLVQAGGSLRLSCAASGFTFYRYTMGWSRQAPGKERELVAAISARGVSTYYADSVKGRFTISRDNAKNTVYLQMNCLKPEDTAVYYCYVSRYDSWGQGTQVTVSS
polyreactivity (PSR sort gate): high polyreactivity

QVHLVESGGGLVQAGGSLRLSCAASGYIFQYYAMGWSRQAPGKERELVAAITGGGSTKYADSVKGRFTISRDNAKNTVYLHMNSLKPEDTAVYYCAASLWYRISKYDYWGLGTQVTVSS
polyreactivity (PSR sort gate): high polyreactivity

QVQLVESGGGLVQAGGSLRLSCAASGLTFPTYAMGWYRQAPGKERELVAAISRIGGRTYYADSVKGRFTISRDNAKNTFYLQMNSLKPEDTAVYYCAADVIKGCVEYDYWGQGTKVTVSS
polyreactivity (PSR sort gate): high polyreactivity

QDQLVESCGGLVQAGGSLRLSCAASGRTFYRYAMGWYIQAPGKERELVADITRRVGITHYADSVKGRFTISRDYAKNTVYLKMNSLKPEDTAVYYCAARKYGSRYRLKYDYWGQGTQVTVSS
polyreactivity (PSR sort gate): high polyreactivity

QVQLVESGGGLVQAGGSLRLSCASSGSTLFPYAMGWYRQAPGKERELVAAISSRGGRTYYADSVKGRFTISRDNAKNTVYLQMNSLKPEDTAVYYCAAGDDYWGQGTQVTVSS
polyreactivity (PSR sort gate): high polyreactivity

QVQLVESGGGLVQAGGSLRLSCAASGRTFALYAMGSYRQAPGKERELVAGITFRGGSTYYADSVKGRFTISRDNAKNTVYLQMNSLKPEDTAVYYCAAVPRVNLSRYVYFWYDYWGQGTQVTVSS
polyreactivity (PSR sort gate): high polyreactivity

QVQLVESGGGLVQAGGSLRLSCAASGIIFCRYAMGWYTQAPGKERELVAAISSSGSTYYADSVKGRFTISRDNATNTVYLQMNSLKPEDTAVYYCAAYSYPAGEYDYWGQGTQVTVSS
polyreactivity (PSR sort gate): low polyreactivity

QVQLVESGGGLVQAGGSLRLSCAASGFILDTYGMGWYRQAPGKERELVAAISQSDVSTYYADSVKGRFTISRYNAKNTVYLQMNSLKPEDTAVYYCAADRAGLRWFWQVLYDYWGQGTQVTVSS
polyreactivity (PSR sort gate): low polyreactivity

QVQLVESGGGLVQAGGILRLSCAASGSIVSYYDMGWYRQAPGKERELVAAITYTGGSTYYADSVKGRFTISRDNAKNTVYLQMNSLKPEDTEVYYCAAQWTIYPLFNSWGQGNQVTVSS
polyreactivity (PSR sort gate): low polyreactivity

QVQLVESGGGLVQAGGSLRLSCAASGSIFGSYVMVWYRQAPGKERELVAAISKSGGRTYYADSVKGRFTISRDNAKNTVYLQMKSLKPEDTAVYYCAVLPRVKDGTGGDYWGQGTQVTVSS
polyreactivity (PSR sort gate): high polyreactivity

QVQLVESGGGLVQAGGSLRLSCAASGYTIRYYAMGWYRQAPGKERELVAAISYSGGRTYYADSVKGRFTISRDNAKNTDYLQMNSLKPEDTAVYYCNAGYYSYRYRYGYDYWGQGTQVTVSS
polyreactivity (PSR sort gate): high polyreactivity

QVQLVESGGGLVQAGGSHRLSCASSGRTFYRNAMGWYRQPPGKERELVAAISSGTSTNYADSVKGRFTISRDNAKNTVYLQMNSLKPEDTAVYYCAKERPRGAPAYYSRIYDYWGQGTQVTVSS
polyreactivity (PSR sort gate): high polyreactivity

QVQLVESGGGLVQAGGSLRLSCAASGITFVANAMGWYRQAPGKERELVAGITQTGGSTYYADSVKGRFTISRDNAKNTVYLQMNSLKPEDTAVYYCAATYRRLRYGKLYYYWGQGTQVTVSS
polyreactivity (PSR sort gate): high polyreactivity

QVQLVESGGGLVQAGGSLRLSCAASGSTFYNYAMGWYRQAPGKERELVAAIRNGGGTNYADSVKGRFTISRDNAKNTVYLQMNSLKPEDTAVYYFNKAYGVSGPGVDYWGQGTQVTVSS
polyreactivity (PSR sort gate): low polyreactivity

QVQLVESGGGLVQAGGSLRLSCAASGRTFVRYAMGWYRQAPGKERELVAAITSGGSTYADSVKGRFTISRDNAKNTVYLQMNSLKPEDTAVYYCAARRYPSYGSWGQGTQVTVSS
polyreactivity (PSR sort gate): low polyreactivity

QVQLVESGGGLVQAGGSLRLSCAASGSIFGKYAMGWYRQAPGKERELVAAITIRGGSTYYADSVKGRFTISRDNAKNTVYLQMNSLKPEDTAVYYCNAVSKYYFGVDYWGQGTQVTVSS
polyreactivity (PSR sort gate): high polyreactivity

QVQRVESGGGLVQAGGSLRLSCAASGSTFGIYDMGWYRQSPGKEMELVARITYSGGSRYYADSVKGRFTISRDNAKNTVYLQMNSLKPEDTAVYYCAARSWPHYFRYDYWGQGTQVTVSS
polyreactivity (PSR sort gate): high polyreactivity

QVQLVESGVGLVQAGGSLRLSCAASGYIFYQYAMGWYRQAPGKERELVSTISWRGGSTYYADSVKGRFTISRDNAKNTVYLQMNCLKPEDTAVYYCAARKRPYTVINGMDYWGQGTQVTVSS
polyreactivity (PSR sort gate): low polyreactivity

QVQLVESGGGLVQAGGSLRLSCAASGLTFYGNAMGWYRQAPGKERELVAAISRGGRTYYADSVKGRFTISRDNAKNTVYLQMNSLKPEDTAVYYCATVVSRGKQPFDMDYWGQGTQVTVSS
polyreactivity (PSR sort gate): low polyreactivity

QVQLVESGGGLVQAGGSLRFSCAASGRIFRYNAMGWYRQAPGKARELVAAISRSGGSTYYADSVKGRFTISRDNAKNTVYLQMISLKPEDTAVYYCAVGSPYGGRAPCVRGGDYWGQGTQVTVSS
polyreactivity (PSR sort gate): high polyreactivity

QVQLVESGGGLVQAGGSLRLSCAASGSIFSTYAMGWYRQAPGKERELVAAIRTWSGGRTYYADSVKGRFTISRDNAKNTVYLQMNSLKPEDTAVYYCAAQFSRYRDYGLNYYYWGQGTQVTVSS
polyreactivity (PSR sort gate): high polyreactivity

QVKLVESGGGLDQAGGSLRLSCAASGSTILQTAMGGYRQAPGKARELVASISRGGSTNYADSVKGRFTISRDNAKTSVYLQMNSLKPEDTEVYFCATRSRRSASPVVYHAYYYWGQGTHVTVSS
polyreactivity (PSR sort gate): high polyreactivity

QVQLVESGGGLVQAGGSLRLSCAASGSIFYGYAMGWYRQAPRKERELVAAISSSGGSTYYADSVKGRFTISRDTAKNTVYLQMNSLKPEDTAVSYCARSRSYWGIVYGRYDYWGQGTQVTVSS
polyreactivity (PSR sort gate): high polyreactivity

QVQLVESGGGLVQAGGSLRLSCAASGITFYRNAMGWYRQATGKERELVAAITSGTSTYYADSVKGRFTISRDNAKNTVYLQMNSLKPEDTAVYYCAKRTPPGYYGFDYWGQGTQVTVSS
polyreactivity (PSR sort gate): low polyreactivity

QVQLVESGGGLVQAGGSLRLSCAASGITFAVYTMGWYSQAPGKERELVAAITGSGGRTYYADSVKGRFTISRDNAKNTVYLQMNSLKPEDTAVYYCNAVQRSSRQTFEYWGQGTQVTVSS
polyreactivity (PSR sort gate): low polyreactivity

QVQLVESGGGLVQAGGSLRLSCAASGSTFVKYAMGWYRQAPGKERELVAAISWSGGRTYYADSVKGRFTISRDNAKNTVYLQMNSLKPEDTAVYYCAARSWYDRYPYYSWGQGTQVTVSS
polyreactivity (PSR sort gate): high polyreactivity

QVQLVESGGGLVQAGGSLRLSCAATGSPFILYALGWYRQAPGKERALVAAITTSGGSTYYADSVKGRFTISRDNAKNTVYLQMNSLKPEDTAVYYCNADWGWRYSSDFDYWGQGTQVTVSS
polyreactivity (PSR sort gate): low polyreactivity

QVQLVESGGGLVQAGGSLRLSCAASGSIFIHYAMGWYRQAPGKERELVAAISRTGSTYYADSVKGRFTISRDNAKNTVYLQMNSLKPEDTAVYYCAKRISTRRYDYWGQGTQVTVSS
polyreactivity (PSR sort gate): low polyreactivity

QVQLVESGGGLVQAGGSLRLSCAASGSTFFYYTMGWYRQAPGKERELVAAISRGGRTNYADSVKGRFTISRDNAKNTVYLLMNSLKREDTAVFYCIADAWSFRQYWGRYDYWGQGTQVTVSS
polyreactivity (PSR sort gate): high polyreactivity

QVQLEESGGGLVQAGGSLRLSCAASGFIFSRNAMGWYRQAPGKERELVAAITGSGARTYYADSVKGRFTISRDNAKNTVYLQMNSLKPEDTAVYYCNADARGGIYFRGVKFDYWGLGTQVTVSS
polyreactivity (PSR sort gate): high polyreactivity

QVQLVESGGGLVQAGGSLRLSCAASGFTFGIYAMGWYRQAPGKERELVAAISRGGGSTYYADSVKGRFTISRDNAKNTVYLQMNSLKPEDTAVYYCAARYQSPYDYWGQGTQVTVSS
polyreactivity (PSR sort gate): high polyreactivity

QVQLVESGGGLVRAGGSLRLSCAASGSTFPFYAMGWYRQAPGKERELVAAITSGGSTYADSVKGRFTISRDNAKNTVYFQMNSLKAEVTAVYYCAASWPRWWRFGYWGQGTQVTVSS
polyreactivity (PSR sort gate): low polyreactivity

QVQLVESGGGLVQAGGSLRLSCAASGSIFLTYAMGWYRKAPGKERELVAAISGGGNTYYADSVKGRFTISRDNAKNTVYLQKNSLKPEDTAVYYCNAVPHIYAEGTAYNYWGQGTQVTVSS
polyreactivity (PSR sort gate): low polyreactivity

QVQLVESGGGIVQAGGSLRLSCAASGRIFWYNAMGWYRQAPGKERELVAGITRSGGRTYYADCVKGRFTISRDNAKNTVYLQMNSLKPEYTAVYYCAAAPYARRDYEYWGQGTQVTVSS
polyreactivity (PSR sort gate): high polyreactivity

QVQLVESGGGLVQAGGSLRLSCAASGRIFYLYAMGWYRQAPGKERELVARITSGSGTYYADSVKGRFTISRDNAKNTVYLQMNSLKPEDTAVYYCAAREPGVGYVGHYTGLDYWGQGTQVTVSS
polyreactivity (PSR sort gate): low polyreactivity

QVQLVESGGGLVQAGGSLRLSCAASGSTFVRYVMGWYRQAPGKQRELVAAISRRGGSTYYADSVEGRFTISRDNAKNTVYLQMNSLKPEDTAVYYCAARGTSRKYYYWGQGTQVTVSS
polyreactivity (PSR sort gate): high polyreactivity
